Experimental data reported in paper PMC10585736.

B1: Pol30p (PCNA), wild type, two-hybrid prey (pBL240-PCNA-Gal4AD) [S. cerevisiae] / Rrm3p, two-hybrid bait [S. cerevisiae] (parent)
chain 1: MLEAKFEEASLFKRIIDGFKDCVQLVNFQCKEDGIIAQAVDDSRVLLVSLEIGVEAFQEYRCDHPVTLGMDLTSLSKILRCGNNTDTLTLIADNTPDSIILLFEDTKKDRIAEYSLKLMDIDADFLKIEELQYDSTLSLPSSEFSKIVRDLSQLSDSINIMITKETIKFVADGDIGSGSVIIKPFVDMEHPETSIKLEMDQPVDLTFGAKYLLDIIKGSSLSDRVGIRLSSEAPALFQFDLKSGFLQFFLAPKFNDEE
chain 2: MFRSHASGNKKQWSKRSSNGSTPAASASGSHAYRQQTLSSFFMGCGKKSAAASKNSTTIIDLESGDEGNRNITAPPRPRLIRNNSSSLFSQSQGSFGDDDPDAEFKKLVDVPRLNSYKKSSRSLSMTSSLHKTASASTTQKTYHFDEDETLREVTSVKSNSRQLSFTSTINIEDSSMKLSTDSERPAKRSKPSMEFQGLKLTVPKKIKPLLRKTVSNMDSMNHRSASSPVVLTMEQERVVNLIVKKRTNVFYTGSAGTGKSVILQTIIRQLSSLYGKESIAITASTGLAAVTIGGSTLHKWSGIGIGNKTIDQLVKKIQSQKDLLAAWRYTKVLIIDEISMVDGNLLDKLEQIARRIRKNDDPFGGIQLVLTGDFFQLPPVAKKDEHNVVKFCFESEMWKRCIQKTILLTKVFRQQDNKLIDILNAIRYGELTVDIAKTIRNLNRDIDYADGIAPTELYATRREVELSNVKKLQSLPGDLYEFKAVDNAPERYQAILDSSLMVEKVVALKEDAQVMMLKNKPDVELVNGSLGKVLFFVTESLVVKMKEIYKIVDDEVVMDMRLVSRVIGNPLLKESKEFRQDLNARPLARLERLKILINYAVKISPHKEKFPYVRWTVGKNKYIHELMVPERFPIDIPRENVGLERTQIPLMLCWALSIHKAQGQTIQRLKVDLRRIFEAGQVYVALSRAVTMDTLQVLNFDPGKIRTNERVKDFYKRLETLK

Variants of: B1
Assay: yeast two-hybrid (β-galactosidase)
Details: with Rrm3p, prey Pol30-8p, parent: 1.3, read off a plot

response (U/mg of protein) | Variant
0.75 | chain 1 R61A D63A

Same assay, conditions: with Rrm3p, prey Pol30-79p, parent: 1.3, read off a plot

response (U/mg of protein) | Variant
1.3 | chain 1 L126A I128A

Same assay, conditions: with Rrm3p, prey Pol30-6p, parent: 1.3, read off a plot

response (U/mg of protein) | Variant
0.58 | chain 1 D41A D42A
